Test results reported in patent US20090291890A1 (published 2009).

Each molecule was assayed against Factor X (FX) (Homo sapiens (Human)) (UniProt P00742).
Chain of Factor X (FX) (Homo sapiens (Human)) (P00742 41-488 limits assumed): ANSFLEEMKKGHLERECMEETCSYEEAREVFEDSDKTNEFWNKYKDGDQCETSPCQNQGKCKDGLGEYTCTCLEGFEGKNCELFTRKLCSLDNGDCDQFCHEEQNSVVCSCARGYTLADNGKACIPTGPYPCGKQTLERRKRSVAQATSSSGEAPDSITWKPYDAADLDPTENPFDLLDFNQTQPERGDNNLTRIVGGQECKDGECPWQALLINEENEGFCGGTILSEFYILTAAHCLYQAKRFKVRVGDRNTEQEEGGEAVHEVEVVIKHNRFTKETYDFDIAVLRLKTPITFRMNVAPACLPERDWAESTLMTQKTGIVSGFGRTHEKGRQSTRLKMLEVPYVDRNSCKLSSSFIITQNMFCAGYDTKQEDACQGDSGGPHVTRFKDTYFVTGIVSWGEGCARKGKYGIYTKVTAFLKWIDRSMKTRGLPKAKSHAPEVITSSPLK

Molecule | kcat/KM, TF-Dependent Indirect Assay
FVIIa variant T128N/P129A/A175S (enzyme) | 2.98e+07 M⁻¹ s⁻¹
FVIIa variant M298Q (enzyme) | 1.4e+08 M⁻¹ s⁻¹
FVIIa variant K109N/A175S (enzyme) | 3.67e+07 M⁻¹ s⁻¹
FVIIa variant Q286N (enzyme) ANAFLEELRPGSLERECKEEQCSFEEAREIFKDAERTKLFWISYSDGDQCASSPCQNGGSCKDQLQSYICFCLPAFEGRNCETHKDDQLICVNENGGCEQYCSDHTGTKRSCRCHEGYSLLADGVSCTPTVEYPCGKIPILEKRNASKPQGRIVGGKVCPKGECPWQVLLLVNGAQLCGGTLINTIWVVSAAHCFDKIKNWRNLIAVLGEHDLSEHDGDEQSRRVAQVIIPSTYVPGTTNHDIALLRLHQPVVLTDHVVPLCLPERTFSERTLAFVRFSLVSGWGNLLDRGATALELMVLNVPRLMTQDCLQQSRKVGDSPNITEYMFCAGYSDGSKDSCKGDSGGPHATHYRGTWYLTGIVSWGQGCATVGHFGVYTRVSQYIEWLQKLMRSEPRPGVLLRAPFP | 4.88e+07 M⁻¹ s⁻¹
FVIIa variant Q286E (enzyme) ANAFLEELRPGSLERECKEEQCSFEEAREIFKDAERTKLFWISYSDGDQCASSPCQNGGSCKDQLQSYICFCLPAFEGRNCETHKDDQLICVNENGGCEQYCSDHTGTKRSCRCHEGYSLLADGVSCTPTVEYPCGKIPILEKRNASKPQGRIVGGKVCPKGECPWQVLLLVNGAQLCGGTLINTIWVVSAAHCFDKIKNWRNLIAVLGEHDLSEHDGDEQSRRVAQVIIPSTYVPGTTNHDIALLRLHQPVVLTDHVVPLCLPERTFSERTLAFVRFSLVSGWGELLDRGATALELMVLNVPRLMTQDCLQQSRKVGDSPNITEYMFCAGYSDGSKDSCKGDSGGPHATHYRGTWYLTGIVSWGQGCATVGHFGVYTRVSQYIEWLQKLMRSEPRPGVLLRAPFP | 1.14e+07 M⁻¹ s⁻¹
FVIIa variant Q286D (enzyme) ANAFLEELRPGSLERECKEEQCSFEEAREIFKDAERTKLFWISYSDGDQCASSPCQNGGSCKDQLQSYICFCLPAFEGRNCETHKDDQLICVNENGGCEQYCSDHTGTKRSCRCHEGYSLLADGVSCTPTVEYPCGKIPILEKRNASKPQGRIVGGKVCPKGECPWQVLLLVNGAQLCGGTLINTIWVVSAAHCFDKIKNWRNLIAVLGEHDLSEHDGDEQSRRVAQVIIPSTYVPGTTNHDIALLRLHQPVVLTDHVVPLCLPERTFSERTLAFVRFSLVSGWGDLLDRGATALELMVLNVPRLMTQDCLQQSRKVGDSPNITEYMFCAGYSDGSKDSCKGDSGGPHATHYRGTWYLTGIVSWGQGCATVGHFGVYTRVSQYIEWLQKLMRSEPRPGVLLRAPFP | 6.04e+06 M⁻¹ s⁻¹
FVIIa variant Q286S (enzyme) ANAFLEELRPGSLERECKEEQCSFEEAREIFKDAERTKLFWISYSDGDQCASSPCQNGGSCKDQLQSYICFCLPAFEGRNCETHKDDQLICVNENGGCEQYCSDHTGTKRSCRCHEGYSLLADGVSCTPTVEYPCGKIPILEKRNASKPQGRIVGGKVCPKGECPWQVLLLVNGAQLCGGTLINTIWVVSAAHCFDKIKNWRNLIAVLGEHDLSEHDGDEQSRRVAQVIIPSTYVPGTTNHDIALLRLHQPVVLTDHVVPLCLPERTFSERTLAFVRFSLVSGWGSLLDRGATALELMVLNVPRLMTQDCLQQSRKVGDSPNITEYMFCAGYSDGSKDSCKGDSGGPHATHYRGTWYLTGIVSWGQGCATVGHFGVYTRVSQYIEWLQKLMRSEPRPGVLLRAPFP | 4.64e+07 M⁻¹ s⁻¹
FVIIa variant Q286T (enzyme) ANAFLEELRPGSLERECKEEQCSFEEAREIFKDAERTKLFWISYSDGDQCASSPCQNGGSCKDQLQSYICFCLPAFEGRNCETHKDDQLICVNENGGCEQYCSDHTGTKRSCRCHEGYSLLADGVSCTPTVEYPCGKIPILEKRNASKPQGRIVGGKVCPKGECPWQVLLLVNGAQLCGGTLINTIWVVSAAHCFDKIKNWRNLIAVLGEHDLSEHDGDEQSRRVAQVIIPSTYVPGTTNHDIALLRLHQPVVLTDHVVPLCLPERTFSERTLAFVRFSLVSGWGTLLDRGATALELMVLNVPRLMTQDCLQQSRKVGDSPNITEYMFCAGYSDGSKDSCKGDSGGPHATHYRGTWYLTGIVSWGQGCATVGHFGVYTRVSQYIEWLQKLMRSEPRPGVLLRAPFP | 2.44e+07 M⁻¹ s⁻¹
FVIIa variant Q286K (enzyme) ANAFLEELRPGSLERECKEEQCSFEEAREIFKDAERTKLFWISYSDGDQCASSPCQNGGSCKDQLQSYICFCLPAFEGRNCETHKDDQLICVNENGGCEQYCSDHTGTKRSCRCHEGYSLLADGVSCTPTVEYPCGKIPILEKRNASKPQGRIVGGKVCPKGECPWQVLLLVNGAQLCGGTLINTIWVVSAAHCFDKIKNWRNLIAVLGEHDLSEHDGDEQSRRVAQVIIPSTYVPGTTNHDIALLRLHQPVVLTDHVVPLCLPERTFSERTLAFVRFSLVSGWGKLLDRGATALELMVLNVPRLMTQDCLQQSRKVGDSPNITEYMFCAGYSDGSKDSCKGDSGGPHATHYRGTWYLTGIVSWGQGCATVGHFGVYTRVSQYIEWLQKLMRSEPRPGVLLRAPFP | 5.44e+07 M⁻¹ s⁻¹
FVIIa variant Q286A (enzyme) ANAFLEELRPGSLERECKEEQCSFEEAREIFKDAERTKLFWISYSDGDQCASSPCQNGGSCKDQLQSYICFCLPAFEGRNCETHKDDQLICVNENGGCEQYCSDHTGTKRSCRCHEGYSLLADGVSCTPTVEYPCGKIPILEKRNASKPQGRIVGGKVCPKGECPWQVLLLVNGAQLCGGTLINTIWVVSAAHCFDKIKNWRNLIAVLGEHDLSEHDGDEQSRRVAQVIIPSTYVPGTTNHDIALLRLHQPVVLTDHVVPLCLPERTFSERTLAFVRFSLVSGWGALLDRGATALELMVLNVPRLMTQDCLQQSRKVGDSPNITEYMFCAGYSDGSKDSCKGDSGGPHATHYRGTWYLTGIVSWGQGCATVGHFGVYTRVSQYIEWLQKLMRSEPRPGVLLRAPFP | 8.55e+07 M⁻¹ s⁻¹
FVIIa variant Q286V (enzyme) ANAFLEELRPGSLERECKEEQCSFEEAREIFKDAERTKLFWISYSDGDQCASSPCQNGGSCKDQLQSYICFCLPAFEGRNCETHKDDQLICVNENGGCEQYCSDHTGTKRSCRCHEGYSLLADGVSCTPTVEYPCGKIPILEKRNASKPQGRIVGGKVCPKGECPWQVLLLVNGAQLCGGTLINTIWVVSAAHCFDKIKNWRNLIAVLGEHDLSEHDGDEQSRRVAQVIIPSTYVPGTTNHDIALLRLHQPVVLTDHVVPLCLPERTFSERTLAFVRFSLVSGWGVLLDRGATALELMVLNVPRLMTQDCLQQSRKVGDSPNITEYMFCAGYSDGSKDSCKGDSGGPHATHYRGTWYLTGIVSWGQGCATVGHFGVYTRVSQYIEWLQKLMRSEPRPGVLLRAPFP | 1.65e+07 M⁻¹ s⁻¹
FVIIa variant H216S (enzyme) ANAFLEELRPGSLERECKEEQCSFEEAREIFKDAERTKLFWISYSDGDQCASSPCQNGGSCKDQLQSYICFCLPAFEGRNCETHKDDQLICVNENGGCEQYCSDHTGTKRSCRCHEGYSLLADGVSCTPTVEYPCGKIPILEKRNASKPQGRIVGGKVCPKGECPWQVLLLVNGAQLCGGTLINTIWVVSAAHCFDKIKNWRNLIAVLGEHDLSESDGDEQSRRVAQVIIPSTYVPGTTNHDIALLRLHQPVVLTDHVVPLCLPERTFSERTLAFVRFSLVSGWGQLLDRGATALELMVLNVPRLMTQDCLQQSRKVGDSPNITEYMFCAGYSDGSKDSCKGDSGGPHATHYRGTWYLTGIVSWGQGCATVGHFGVYTRVSQYIEWLQKLMRSEPRPGVLLRAPFP | 4.74e+07 M⁻¹ s⁻¹
